The text below walks through data of publication PMC11483992.

One assay concerns the target monobody AS25. Kind of assay: ITC; Abl SH2 in the syringe (200 µM, or 300 µM for AS25 Y45A-A57G) titrated to the monobody in the cell (20 µM, or 30 µM); 50 mM Tris pH 7.0, 250 mM NaCl, 5% glycerol; 25 °C. A general note: In ITC the heat of successive injections is recorded.
Another assay addresses AS25_(A57G). The description is as above.
In another assay the target is AS25_(Y45A-A57G). The description is as above.
Sequence of AS25_(Y45A-A57G) (main, as listed by the source Y45A A57G): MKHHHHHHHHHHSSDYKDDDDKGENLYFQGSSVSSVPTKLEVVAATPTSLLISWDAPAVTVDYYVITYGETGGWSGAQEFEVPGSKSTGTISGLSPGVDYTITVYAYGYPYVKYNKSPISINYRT
The next assay deals with AS25 A57G monobody. Kind of assay: ITC; Abl SH2 in the syringe (200 µM; 300 µM for AS25 Y45A-A57G) titrated to the monobody in the cell (20 µM; 30 µM for AS25 Y45A-A57G); 25 °C; 50 mM Tris pH 7.0, 250 mM NaCl, 5% glycerol; two replicate experiments.
The next assay deals with AS25 Y45A-A57G monobody. The assay is described as above.
Sequence of AS25 Y45A-A57G monobody (main, as listed by the source Y45A A57G): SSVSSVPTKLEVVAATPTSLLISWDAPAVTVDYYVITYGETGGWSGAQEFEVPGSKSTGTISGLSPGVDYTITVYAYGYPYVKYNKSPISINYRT
A further assay deals with AS25 monobody. The assay is described as above.

Several values for one entry are separate records, joined by “and”; a condition that tells them apart may be missing. Equal entries are not always repeated.

Sequence of monobody AS25 (main, as listed by the source): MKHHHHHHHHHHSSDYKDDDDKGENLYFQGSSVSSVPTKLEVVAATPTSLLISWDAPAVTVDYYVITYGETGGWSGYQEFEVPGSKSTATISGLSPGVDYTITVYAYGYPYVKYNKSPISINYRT
Sequence of AS25_(A57G) (main, as listed by the source A57G): as the sequence (main, as listed by the source) above, with A89G counted along it

By Kd is commonly meant the equilibrium constant for the complex coming apart. High values mean a looser complex, low ones a tighter complex. What is called stoichiometry N is the number of molecules, sites or subunits per partner or assembly. For “Abl1 SH2 domain (from UniProt P00519 112-232) (domain or fragment)”, the Kd in the assay with monobody AS25 is 180 nM; with AS25_(A57G), 156 nM; with AS25_(Y45A-A57G) it was 2690 nM; in the assay with AS25 A57G monobody, 188 nM; with AS25 Y45A-A57G monobody, 3170 nM; in the assay with AS25 monobody it was 210 nM. In addition, the stoichiometry N is 1 in the assay with monobody AS25; 1 with AS25_(A57G); 1 with AS25_(Y45A-A57G); 0.864 and 0.817 in the assay with AS25 A57G monobody; 0.792 and 0.788 with AS25 Y45A-A57G monobody; 0.861 and 0.869 with AS25 monobody.
